Molecular target: T1, TMF/ARA160 (endogenous protein of C2C12, NIH3T3 and T127 cells) (UniProt B9EKI3 1-1091)
T1 construct: Endogenous protein, immunoprecipitated from whole cell extracts or stained in fixed cells; also called Gate-Keeper; GK
T1 sequence (looked up): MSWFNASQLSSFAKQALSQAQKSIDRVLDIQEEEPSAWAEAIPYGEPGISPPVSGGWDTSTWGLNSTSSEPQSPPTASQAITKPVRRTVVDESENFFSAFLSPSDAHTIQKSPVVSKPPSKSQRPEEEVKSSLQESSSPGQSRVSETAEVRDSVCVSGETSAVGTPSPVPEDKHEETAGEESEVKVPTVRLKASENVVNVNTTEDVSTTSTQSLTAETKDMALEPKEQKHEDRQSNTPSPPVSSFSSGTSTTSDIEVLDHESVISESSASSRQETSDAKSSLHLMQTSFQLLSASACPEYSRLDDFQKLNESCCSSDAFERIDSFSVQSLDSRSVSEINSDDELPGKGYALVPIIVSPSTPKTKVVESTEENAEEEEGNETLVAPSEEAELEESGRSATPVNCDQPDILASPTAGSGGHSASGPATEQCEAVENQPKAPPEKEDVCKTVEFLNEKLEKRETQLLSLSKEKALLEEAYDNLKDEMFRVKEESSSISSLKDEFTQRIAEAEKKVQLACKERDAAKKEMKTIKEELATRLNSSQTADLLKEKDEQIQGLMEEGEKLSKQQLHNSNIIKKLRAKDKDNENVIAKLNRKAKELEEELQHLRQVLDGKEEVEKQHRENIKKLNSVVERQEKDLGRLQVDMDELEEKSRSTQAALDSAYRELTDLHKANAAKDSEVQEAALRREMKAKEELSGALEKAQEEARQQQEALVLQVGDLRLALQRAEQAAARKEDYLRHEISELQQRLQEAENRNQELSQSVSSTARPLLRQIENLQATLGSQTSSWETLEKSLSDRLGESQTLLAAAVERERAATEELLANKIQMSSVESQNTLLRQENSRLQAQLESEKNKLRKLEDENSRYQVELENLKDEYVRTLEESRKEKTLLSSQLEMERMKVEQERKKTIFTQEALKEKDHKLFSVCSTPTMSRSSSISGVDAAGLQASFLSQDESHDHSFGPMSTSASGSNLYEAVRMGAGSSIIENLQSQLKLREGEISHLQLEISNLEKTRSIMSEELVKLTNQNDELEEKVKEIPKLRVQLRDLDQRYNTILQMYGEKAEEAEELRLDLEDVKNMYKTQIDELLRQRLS
Assay: co-immunoprecipitation with αTMF/ARA160 from C2C12 extracts, Western blot with αStat1
Source text: FIG. 6 is an immunoprecipitation showing that TMF/ARA160 associates with cyclin D1 and Stat3 but not with Stat1, in serum starved C2C12 cells. […] Whole cell extracts from actively growing (lanes 1 and 5) or serum-starved cells (lanes 2-4 and 6-8) which were either untreated (lanes 1-4) or treated with MG132 (lanes 5-8), were resolved by 7% SDS-PAGE and exposed to αStat3 (upper panel); αcyclin D1 (middle panel); or αStat1 antibodies (lower panel), in a Western-blot analysis. […] TMF/ARA160 was immunoprecipitated from the extracts described in A. Precipitates were resolved by 7% SDS-PAGE and were reacted with αStat3 (upper panel); αStat1 (middle panel); or αcyclin D1 antibodies (lower panel), in a Western-blot analysis.

binding result: no binding
B1: Stat1 (endogenous protein of C2C12 cells) (other, UniProt P42225 2-749, looked up)
chain: SQWFELQQLDSKFLEQVHQLYDDSFPMEIRQYLAQWLEKQDWEHAAYDVSFATIRFHDLLSQLDDQYSRFSLENNFLLQHNIRKSKRNLQDNFQEDPVQMSMIIYNCLKEERKILENAQRFNQAQEGNIQNTVMLDKQKELDSKVRNVKDQVMCIEQEIKTLEELQDEYDFKCKTSQNREGEANGVAKSDQKQEQLLLHKMFLMLDNKRKEIIHKIRELLNSIELTQNTLINDELVEWKRRQQSACIGGPPNACLDQLQTWFTIVAETLQQIRQQLKKLEELEQKFTYEPDPITKNKQVLSDRTFLLFQQLIQSSFVVERQPCMPTHPQRPLVLKTGVQFTVKSRLLVKLQESNLLTKVKCHFDKDVNEKNTVKGFRKFNILGTHTKVMNMEESTNGSLAAELRHLQLKEQKNAGNRTNEGPLIVTEELHSLSFETQLCQPGLVIDLETTSLPVVVISNVSQLPSGWASILWYNMLVTEPRNLSFFLNPPCAWWSQLSEVLSWQFSSVTKRGLNADQLSMLGEKLLGPNAGPDGLIPWTRFCKENINDKNFSFWPWIDTILELIKNDLLCLWNDGCIMGFISKERERALLKDQQPGTFLLRFSESSREGAITFTWVERSQNGGEPDFHAVEPYTKKELSAVTFPDIIRNYKVMAAENIPENPLKYLYPNIDKDHAFGKYYSRPKEAPEPMELDDPKRTGYIKTELISVSEVHPSRLQTTDNLLPMSPEEFDEMSRIVGPEFDSMMSTV

Source: US20050063973A1 (URIFER, published 2005)
